According to the Human Domainome abundance scans (Beltran et al. 2025):
± gives the uncertainty stated by the source.

B1: V(D)J recombination-activating protein 2, residues 415 to 491; numbered along this chain, P55895 (parent)
chain: YWITCCPTCDVDINTWVPFYSTELNKPAMIYCSHGDGHWVHAQCMDLAERTLIHLSAGSNKYYCNEHVEIARALHTP
B2: PDZ and LIM domain protein 2, residues 284 to 339; numbered along this chain, Q96JY6 (parent)
chain: HTCEKCSTSIANQAVRIQEGRYRHPGCYTCADCGLNLKMRGHFWVGDELYCEKHAR

Variants of: B1
Experiment: abundance fitness (aPCA) (normalised: wild type 0, dead -1); higher = more abundant; growth selection in yeast, the domain comes from the species named
Conditions: Homo sapiens

Abundance fitness of substitutions, site by site:
V11: C 0.012 ± 0.38 | W -0.178 ± 0.29 | G -0.697 ± 0.14 | F -0.386 ± 0.22 | S -0.437 ± 0.14 | R -0.75 ± 0.37 | T -0.336 ± 0.13 | A -0.741 ± 0.35 | M -0.264 ± 0.19
D12: M 0.009 ± 0.14 | N -0.01 ± 0.37 | V -0.304 ± 0.3 | W -0.317 ± 0.28 | L -0.332 ± 0.11 | G -0.04 ± 0.14 | F -0.244 ± 0.38 | T -0.226 ± 0.24 | E 0.083 ± 0.42 | P -0.392 ± 0.21 | R 0.107 ± 0.12 | S -0.229 ± 0.22
E23: H -0.635 ± 0.31 | G -0.372 ± 0.17 | S -0.805 ± 0.23 | C -0.851 ± 0.42 | D 0.122 ± 0.17 | F -0.901 ± 0.34 | K -0.54 ± 0.28 | R -1.03 ± 0.24
C5: G -0.392 ± 0.2 | A -0.616 ± 0.41
S21: Q -0.325 ± 0.37 | H 0.086 ± 0.35 | P -0.004 ± 0.12 | A -0.187 ± 0.13 | W -0.443 ± 0.19 | T -0.321 ± 0.12 | D -0.17 ± 0.26 | C 0.015 ± 0.16 | Y -0.027 ± 0.21 | F -0.154 ± 0.14 | G -0.108 ± 0.091 | R -0.111 ± 0.12 | E 0.119 ± 0.17 | V -0.28 ± 0.12 | M -0.321 ± 0.44
T4: W -0.297 ± 0.07 | Y -0.141 ± 0.12 | C -0.119 ± 0.1 | D -0.022 ± 0.12 | Q -0.185 ± 0.077 | E -0.057 ± 0.063 | R -0.013 ± 0.035 | N 0.012 ± 0.091 | P -0.234 ± 0.068 | M -0.176 ± 0.08 | L -0.049 ± 0.053 | V -0.128 ± 0.045 | A -0.122 ± 0.046 | I -0.016 ± 0.1 | S -0.037 ± 0.054 | F -0.101 ± 0.1 | K -0.048 ± 0.069
F19: P -0.509 ± 0.15 | W 0.043 ± 0.19 | S -0.154 ± 0.29 | N 0.191 ± 0.46 | D 0.099 ± 0.32 | R -0.145 ± 0.12 | A -0.305 ± 0.13 | C -0.186 ± 0.2 | G -0.142 ± 0.19 | Y 0.08 ± 0.42 | K -0.116 ± 0.27 | M -0.029 ± 0.16 | E -0.179 ± 0.16
P27: D -1.01 ± 0.41 | C -0.938 ± 0.32 | F -0.515 ± 0.46 | G -1.09 ± 0.27 | A -0.776 ± 0.44
K26: N -0.03 ± 0.17 | F -0.116 ± 0.22 | Q -0.179 ± 0.19 | V -0.084 ± 0.23 | M -0.597 ± 0.35 | S -0.174 ± 0.28 | W 0.023 ± 0.18 | E -0.129 ± 0.44 | P -0.786 ± 0.36 | L -0.063 ± 0.14 | T -0.074 ± 0.38 | Y -0.421 ± 0.43 | G -0.17 ± 0.15 | A -0.275 ± 0.3 | R -0.006 ± 0.12
D10: S -0.114 ± 0.21 | V 0.145 ± 0.19 | N 0.033 ± 0.14 | M -0.325 ± 0.47 | G -0.03 ± 0.13 | A 0.065 ± 0.14 | W 0.045 ± 0.12 | Q 0.121 ± 0.21 | K -0.089 ± 0.18 | T 0.019 ± 0.21 | R 0.195 ± 0.17 | L 0.102 ± 0.2
L24: C 0.027 ± 0.096 | M -0.319 ± 0.21 | V -0.083 ± 0.12 | P -0.56 ± 0.39 | E 0.296 ± 0.38 | S -0.153 ± 0.099 | W -0.305 ± 0.14 | I -0.156 ± 0.25 | T -0.081 ± 0.22 | A -0.164 ± 0.15 | Y -0.337 ± 0.32 | Q -0.1 ± 0.18 | F -0.362 ± 0.3
C6: F -0.304 ± 0.48 | G -0.024 ± 0.39 | M -0.393 ± 0.35 | K -0.28 ± 0.16 | R -0.432 ± 0.17 | L -0.284 ± 0.33 | V -0.096 ± 0.26 | S 0.209 ± 0.19
V17: E 0.046 ± 0.33 | Q 0.074 ± 0.19 | N -0.687 ± 0.44 | R -0.022 ± 0.13 | F 0.109 ± 0.23 | L -0.056 ± 0.11 | M -0.105 ± 0.25 | S -0.01 ± 0.2 | W -0.117 ± 0.15 | I -0.153 ± 0.2 | P -0.375 ± 0.49
W2: H -0.11 ± 0.19 | K -0.162 ± 0.13 | G -0.342 ± 0.051 | P -0.299 ± 0.14 | M -0.226 ± 0.052 | Y 0.055 ± 0.1 | Q -0.382 ± 0.14 | E -0.231 ± 0.076 | V -0.853 ± 0.11 | R -0.378 ± 0.054 | I -0.333 ± 0.26 | N 0.12 ± 0.31 | A -0.39 ± 0.07 | L -0.467 ± 0.066
Y20: M -0.383 ± 0.27 | S -0.513 ± 0.14 | E -0.576 ± 0.3 | P -0.378 ± 0.26 | D -0.525 ± 0.26 | V -0.719 ± 0.29 | G -0.28 ± 0.15 | N -0.09 ± 0.25 | A -0.539 ± 0.35
C9: Y -0.739 ± 0.33 | T -0.809 ± 0.38 | R -0.668 ± 0.18 | F -0.637 ± 0.26 | Q -0.175 ± 0.3 | G -0.916 ± 0.5
T22: W -0.121 ± 0.13 | C -0.131 ± 0.34 | S 0.096 ± 0.18 | K 0.052 ± 0.19 | P -0.281 ± 0.24 | H 0.216 ± 0.46 | D -0.121 ± 0.39 | V -0.062 ± 0.13 | M 0.389 ± 0.36 | R -0.23 ± 0.11 | L -0.179 ± 0.11 | F -0.181 ± 0.16 | G -0.353 ± 0.17 | A -0.157 ± 0.41
P18: M -0.579 ± 0.24 | E -0.28 ± 0.34 | L -0.038 ± 0.25 | Q -0.425 ± 0.14 | S -0.344 ± 0.17 | N -0.453 ± 0.27 | R -0.381 ± 0.081 | I -0.892 ± 0.29 | G -0.36 ± 0.2 | A -0.028 ± 0.25 | H -0.175 ± 0.3
T15: F 0.052 ± 0.36 | H 0.03 ± 0.29 | G 0.055 ± 0.25 | V 0.015 ± 0.34 | R -0.474 ± 0.5 | A -0.341 ± 0.21 | I -0.104 ± 0.3 | M -0.011 ± 0.3
Y1: E -0.063 ± 0.2 | M -0.041 ± 0.089 | K -0.365 ± 0.17 | F -0.07 ± 0.11 | S -0.084 ± 0.053 | N -0.252 ± 0.17 | V -0.008 ± 0.08 | L -0.098 ± 0.087 | G -0.102 ± 0.075 | A -0.188 ± 0.079 | W -0.19 ± 0.037 | T -0.098 ± 0.25 | D -0.108 ± 0.21 | R -0.469 ± 0.24 | Q -0.283 ± 0.22 | H -0.399 ± 0.18
I3: T -0.102 ± 0.08 | K -0.018 ± 0.057 | Q -0.186 ± 0.075 | E -0.082 ± 0.074 | G -0.021 ± 0.033 | A -0.057 ± 0.042 | C -0.117 ± 0.057 | W -0.159 ± 0.068 | V -0.053 ± 0.042 | L -0.112 ± 0.042 | D 0.004 ± 0.071 | N -0.053 ± 0.15 | Y -0.202 ± 0.098 | H -0.265 ± 0.078 | F 0.044 ± 0.082 | P -0.623 ± 0.078 | M -0.041 ± 0.07 | S -0.118 ± 0.044
I13: M -0.284 ± 0.34 | G -0.193 ± 0.14 | T -0.329 ± 0.22 | W -0.12 ± 0.23 | E 0.172 ± 0.29 | A -0.149 ± 0.39 | C -0.059 ± 0.23 | L -0.098 ± 0.14 | R 0.114 ± 0.14 | S -0.264 ± 0.3 | V -0.35 ± 0.14
N25: L 0.073 ± 0.14 | A -0.124 ± 0.19 | R -0.052 ± 0.14 | V 0.065 ± 0.21 | G 0.01 ± 0.11 | T -0.05 ± 0.17 | C -0.309 ± 0.15 | Y -0.344 ± 0.36 | S -0.042 ± 0.12 | H 0.113 ± 0.31 | E 0.167 ± 0.17 | W -0.024 ± 0.2 | M -0.254 ± 0.24 | D -0.297 ± 0.33 | Q 0.132 ± 0.24
P7: S 0.075 ± 0.41 | W -0.242 ± 0.23 | K 0.084 ± 0.31 | R -0.635 ± 0.31 | E 0.09 ± 0.22 | L -0.065 ± 0.2 | V -0.006 ± 0.34 | D 0.002 ± 0.28
W16: I -0.12 ± 0.26 | E -0.894 ± 0.36 | F -0.725 ± 0.42 | Q -0.916 ± 0.43 | T -0.144 ± 0.38 | R -0.35 ± 0.16 | C -0.553 ± 0.23 | P -0.471 ± 0.41 | G -0.565 ± 0.15 | L -0.346 ± 0.2
N14: Q -0.332 ± 0.29 | V -0.149 ± 0.23 | D 0.385 ± 0.33 | A -0.509 ± 0.4 | P -0.346 ± 0.49 | M -0.01 ± 0.32 | K -0.004 ± 0.42 | R -0.137 ± 0.2 | T 0.039 ± 0.16 | S -0.419 ± 0.33
T8: D -0.279 ± 0.35 | N 0.091 ± 0.18 | K -0.123 ± 0.17 | E 0.058 ± 0.17 | V -0.196 ± 0.23 | W -0.627 ± 0.41 | A -0.437 ± 0.17 | P -0.159 ± 0.3 | Y -0.541 ± 0.45 | R -0.204 ± 0.2 | G -0.277 ± 0.14 | S 0.129 ± 0.24 | Q -0.258 ± 0.2

Variants of: B2
Experiment: as above
Conditions: Homo sapiens

Abundance fitness, by site and new letter:
C30: E -0.834 ± 0.075
K38: Q -0.263 ± 0.16
V15: S -0.231 ± 0.069 | C -0.317 ± 0.15
G26: P -0.016 ± 0.082
Y28: F -0.364 ± 0.13
H54: W -0.856 ± 0.081
R21: D -0.217 ± 0.15
D47: E -0.12 ± 0.14
A11: S 0.196 ± 0.073
D32: E -0.171 ± 0.083 | F 0.006 ± 0.082
I17: W -0.533 ± 0.13
R40: Y -0.163 ± 0.12
G41: H -0.682 ± 0.36
M39: W -0.523 ± 0.068
Q13: V -0.327 ± 0.12
G34: I -0.352 ± 0.2
T2: E -0.597 ± 0.078 | N 0.177 ± 0.11 | I 0.208 ± 0.16
A31: Y -0.226 ± 0.17
V45: T -0.585 ± 0.12 | E 0.041 ± 0.083
R16: M 0.2 ± 0.1 | V 0.146 ± 0.06
C27: Q -0.268 ± 0.075
A55: W 0.063 ± 0.056 | I -0.203 ± 0.26
Y22: G -0.411 ± 0.08
E48: V -0.011 ± 0.095
